Measured values as given in patent US20240391961A1.
Where two headings read alike, the source gives them in different places.

Assays:
[1] = target: 14-3-3ζ nhpSer58 with a FLAG tag at its N-terminus (Homo sapiens (Human)) (UniProt P63104)
[2] = target: 14-3-3ζ nhpSer58 with a FLAG tag at its N-terminus (Homo sapiens (Human)) (UniProt P63104); assay: pulldown from HEK293 lysate, MS; nhpSer58 bait vs WT bait (reference)

14-3-3ζ nhpSer58 with a FLAG tag at its N-terminus (Homo sapiens (Human)), sequence (P63104 whole entry): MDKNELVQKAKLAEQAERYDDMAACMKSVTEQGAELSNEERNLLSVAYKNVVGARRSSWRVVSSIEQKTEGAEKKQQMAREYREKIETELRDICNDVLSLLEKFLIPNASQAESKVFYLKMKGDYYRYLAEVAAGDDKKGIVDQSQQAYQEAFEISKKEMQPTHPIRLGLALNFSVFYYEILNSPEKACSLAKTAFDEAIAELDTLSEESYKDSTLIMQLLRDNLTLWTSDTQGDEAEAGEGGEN

| Substance | FC [1] | further results |
| --- | --- | --- |
| Keratin, type I cytoskeletal 13 [OS = Homo sapiens] (from UniProt P13646 1-458) | 8.89 fold | – |
| E3 ubiquitin-protein ligase MYCBP2 [OS = Homo sapiens] (from UniProt O75592 1-4678) | 0.234 fold | – |
| Centrosomal protein of 55 kDa [OS = Homo sapiens] (from UniProt Q53EZ4 1-464) | 4.5 fold | – |
| SAGA-associated factor 29 [OS = Homo sapiens] (from UniProt Q96ES7 1-293) | 9.02 fold | – |
| Cyclin-dependent kinase 2-associated protein 1 [OS = Homo sapiens] (from UniProt O14519 1-115) | 4.42 fold | – |
| Junction plakoglobin [OS = Homo sapiens] (from UniProt P14923 1-745) | 4.8 fold | – |
| Apoptosis-stimulating of p53 protein 2 [OS = Homo sapiens] (from UniProt Q13625 1-1128) | 6.29 fold | – |
| Cleavage stimulation factor subunit 3 [OS = Homo sapiens] (from UniProt Q12996 2-717) | 8.68 fold | – |
| Exportin-1 [OS = Homo sapiens] (from UniProt O14980 1-1071) | 7.95 fold | – |
| F-box only protein 50 [OS = Homo sapiens] (from UniProt Q6ZVX7 1-275) | 4.55 fold | – |
| Arginase-1 [OS = Homo sapiens] (from UniProt P05089 1-322) | 6.22 fold | – |
| Annexin A2 [OS = Homo sapiens] (from UniProt P07355 2-339) | 24.6 fold | – |
| Serpin B4 [OS = Homo sapiens] (from UniProt P48594 1-390) | 36.3 fold | – |
| Talin-1 [OS = Homo sapiens] (from UniProt Q9Y490 1-2541) | 12.7 fold | – |
| nuclear pore complex protein Nup98-Nup96 [OS = Homo sapiens] (from UniProt P52948 1-1817) | 5.93 fold | – |
| Pre-mRNA-splicing factor ATP-dependent RNA helicase DHX15 [OS = Homo sapiens] (from UniProt O43143 1-795) | 6.21 fold | – |
| A-kinase anchor protein 9 [OS = Homo sapiens], Q99996 1-3907 | 0.0561 fold | – |
| Translin-associated protein X [OS = Homo sapiens] (from UniProt Q99598 1-290) | 6.28 fold | – |
| DNA methyltransferase 1-associated protein 1 [OS = Homo sapiens] (from UniProt Q9NPF5 1-467) | 6.86 fold | – |
| 14-3-3 protein zeta/delta [OS = Homo sapiens] (from UniProt P63104 1-245) | – | FC [2]: 0.0821 fold; Log2(FC) [2]: -3.61 log2 |

| Substance | FC [1] | further results |
| --- | --- | --- |
| Neurofibromin [OS = Homo sapiens] (from UniProt P21359 2-2839) | 0.165 fold | – |
| HAUS augmin-like complex subunit 5 [OS = Homo sapiens] (from UniProt O94927 1-633) | 7.34 fold | – |
| BRCA2-interacting transcriptional repressor EMSY [OS = Homo sapiens] (from UniProt Q7Z589 1-1322) | 9.69 fold | – |
| Acyl-CoA dehydrogenase family member 10 [OS = Homo sapiens] (from UniProt Q6JQN1 1-1059) | 4.04 fold | – |
| Protein S100-A7 [OS = Homo sapiens] (from UniProt P31151 2-101) | 64.8 fold | – |
| Intraflagellar transport protein 22 homolog [OS = Homo sapiens] (from UniProt Q9H7X7 1-185) | 16.3 fold | – |
| Protein disulfide-isomerase A6 [OS = Homo sapiens] (from UniProt Q15084 20-440) | 38.4 fold | – |
| opioid growth factor receptor [OS = Homo sapiens] (from UniProt Q9NZT2 1-677) | 7.06 fold | – |
| exosome complex exonuclease RRP44 [OS = Homo sapiens] (from UniProt Q9Y2L1 1-958) | 5.09 fold | – |
| Desmoglein-1 [OS = Homo sapiens] (from UniProt Q02413 50-1049) | 7.08 fold | – |
| Keratin, type II cytoskeletal 78 [OS = Homo sapiens] (from UniProt Q8N1N4 1-520) | 6.98 fold | – |
| Melanoma-associated antigen D2 [OS = Homo sapiens] (from UniProt Q9UNF1 2-606) | 63.1 fold | – |
| striatin [OS = Homo sapiens] (from UniProt O43815 1-780) | 4.33 fold | – |
| Protein cereblon [OS = Homo sapiens] (from UniProt Q96SW2 1-442) | 8.91 fold | – |
| Intraflagellar transport protein 81 homolog [OS = Homo sapiens] (from UniProt Q8WYA0 2-676) | 21.9 fold | – |
| Ketosamine-3-kinase [OS = Homo sapiens] (from UniProt Q9HA64 1-309) | 9.56 fold | – |
| Cytochrome c oxidase subunit 5A, mitochondrial [OS = Homo sapiens] (from UniProt P20674 42-150) | 0.223 fold | – |
| Protein S100-A9 [OS = Homo sapiens] (from UniProt P06702 1-114) | 4.73 fold | – |
| Polyadenylate-binding protein 1 [OS = Homo sapiens] (from UniProt P11940 1-636) | 0.182 fold | – |
| Platelet-activating factor acetylhydrolase IB subunit alpha [OS = Homo sapiens] (from UniProt P43034 1-410) | 7.47 fold | – |
